Assay results published in patent US20190077860A1 (EISAI R AND D MANAGEMENT, published 2019).

Columns and labels:
[1] = target: T1, mouse EphA4 extracellular region-SEAP-His protein (mouse); experiment: competition ELISA: mouse EphA4 extracellular region-SEAP-His captured on the plate, blocked ligand mouse Ephrin A1-Fc chimera (20 nM)
Protocol: (§1) Antibody A obtained in Example 1 was evaluated for its inhibitory activity against the binding between mouse EphA4 and its mouse ligand according to the following steps. Each well of a 96-well plate (Nunc) was coated with an anti-alkaline phosphatase antibody (Thermo Fisher Scientific). After incubation overnight at 4° C., each well was blocked with 1% BlockAce (DS Pharma Biomedical) at room temperature for 1 hour. After washing with 0.05% Tween 20/PBS (Thermo Fisher Scientific) three times, the mouse EphA4 extracellular region-SEAP-His protein obtained by the method of Example 1 was added (final concentration: 10 nM) to each well and incubated at room temperature for 1 hour. After washing three times, ligands and serially diluted antibody A (0, 0.001, 0.003, 0.01, 0.03, 0.1, 0.3, 1,3, 10, 30, 100, 300, and 1000 nM) or a known EphA4 inhibitor KYL peptide ([…], 0, 0.003, 0.01, 0.03, 0.1, 0.3, 1, 3, 10, 30, and 100 μM, its synthesis was outsourced to Hokkaido System Science) or compound 1 (0, 0.03, 0.1, 0.3, 1,3, 10, 30, 100, 300, and 1000 μM, Formula 1, Matrix Scientific) were added to each well. The ligands used were mouse Ephrin A1-Fc chimera (R&D Systems, final concentration: 20 nM) and mouse Ephrin B2-Fc chimera (R&D Systems, final concentration: 0.6 nM). […] The absorbance at 450 nm was read using a microplate reader (Molecular Devices).

[2] = target: rat EphA4 in rat hippocampal neurons (rat, UniProt D3ZZK3 20-986); experiment: cell-based or functional assay
[3] = target: T1, mouse EphA4 extracellular …; experiment: competition ELISA, competitor mouse Ephrin B2-Fc
Protocol: as §1

[4] = target: T1, mouse EphA4 extracellular …; experiment: competition ELISA: mouse EphA4 extracellular region-SEAP-His captured on the plate, blocked ligand mouse Ephrin B2-Fc chimera (0.6 nM)
Protocol: as §1

[5] = target: T2, human EphA4 extracellular region-SEAP-His protein (human, UniProt P54764 20-547); experiment: competition ELISA: human EphA4 extracellular region-SEAP-His captured on the plate, blocked ligand biotinylated human Ephrin A5-Fc chimera (0.7 nM)
T2 construct: also called hEphA4-SEAP-His
T2 sequence (P54764 20-547): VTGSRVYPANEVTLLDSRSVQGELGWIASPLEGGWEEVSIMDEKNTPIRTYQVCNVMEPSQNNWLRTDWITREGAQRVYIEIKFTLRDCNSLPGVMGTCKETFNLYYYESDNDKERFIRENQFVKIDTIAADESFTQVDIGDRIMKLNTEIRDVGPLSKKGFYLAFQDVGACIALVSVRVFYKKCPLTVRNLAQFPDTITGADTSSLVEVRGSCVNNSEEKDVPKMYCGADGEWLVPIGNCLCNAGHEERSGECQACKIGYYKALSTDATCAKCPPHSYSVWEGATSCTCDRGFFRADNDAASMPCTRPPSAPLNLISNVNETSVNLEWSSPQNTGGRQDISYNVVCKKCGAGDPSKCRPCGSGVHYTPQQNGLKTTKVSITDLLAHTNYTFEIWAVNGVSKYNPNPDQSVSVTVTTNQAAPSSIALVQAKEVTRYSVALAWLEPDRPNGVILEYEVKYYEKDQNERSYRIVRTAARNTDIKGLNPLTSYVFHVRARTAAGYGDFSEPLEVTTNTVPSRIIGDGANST
Protocol: (§2) Antibody A obtained in Example 1 was evaluated for its inhibitory activity against the binding between human EphA4 and its human ligand according to the following steps. Each well of a 96-well plate (Nunc) was coated with an anti-alkaline phosphatase antibody (Thermo Fisher Scientific). After incubation overnight at 4° C., each well was blocked with 1% BlockAce (DS Pharma Biomedical) at room temperature for 1 hour. After washing with 0.05% Tween 20/PBS (Thermo Fisher Scientific) three times, the human EphA4 extracellular region-SEAP-His protein obtained by the method of Example 1 was added (final concentration: 10 nM) to each well and incubated at room temperature for 1 hour. After washing three times, ligands and serially diluted antibody A (0, 0.003, 0.01, 0.03, 0.1, 0.3, 1, 3, 10, 30, 100, 300, 1000, and 3000 nM) or an EphA4 inhibitor KYL peptide ([…], 0, 0.003, 0.01, 0.03, 0.1, 0.3, 1, 3, 10, 30, 100, 300, 1000, and 3000 μM, its synthesis was outsourced to Toray Research Center) were added to each well. The ligands used were biotinylated human Ephrin A5-Fc chimera (R&D Systems, final concentration: 0.7 nM) and biotinylated human Ephrin B3-Fc chimera (R&D Systems, final concentration: 2.3 nM). […] The absorbance at 450 nm was read using a microplate reader (Molecular Devices or PerkinElmer). […]

[6] = target: T2, human EphA4 extracellular …; experiment: competition ELISA: human EphA4 extracellular region-SEAP-His captured on the plate, blocked ligand biotinylated human Ephrin B3-Fc chimera (2.3 nM)
Protocol: as §2

[7] = target: T1, mouse EphA4 extracellular …; experiment: competition ELISA, competitor biotinylated mouse Ephrin B2-Fc
Protocol: Antibody A-Fab and antibody A-F(ab′)₂ obtained in Example 5 were evaluated for their inhibitory activity against the binding between EphA4 and its ligand according to the following steps. Each well of a 96-well plate (Nunc) was coated with an anti-alkaline phosphatase antibody (Thermo Fisher Scientific). After incubation overnight at 4° C., each well was blocked with 1% BlockAce (DS Pharma Biomedical) at room temperature for 1 hour. After washing with 0.05% Tween 20/PBS (Thermo Fisher Scientific) three times, the mouse EphA4 extracellular region-SEAP-His protein obtained by the method of Example 1 was added (final concentration: 10 nM) to each well and incubated at room temperature for 1 hour. After washing three times, a ligand and serially diluted antibody A (0, 0.003, 0.01, 0.03, 0.1, 0.3, 1, 3, 10, 30, 100, 300, 1000, and 3000 nM), antibody A-Fab (0, 0.003, 0.01, 0.03, 0.1, 0.3, 1, 3, 10, 30, 100, 300, 1000, and 3000 nM), antibody A-F(ab′)₂ (0, 0.003, 0.01, 0.03, 0.1, 0.3, 1, 3, 10, 30, 100, 300, 1000, and 3000 nM), or the EphA4 inhibitor KYL peptide ([…], 0, 0.0003, 0.001, 0.003, 0.01, 0.03, 0.1, 0.3, 1, 3, 10, 30, 100, 300, 1000, and 3000 μM, its synthesis was outsourced to Toray Research Center) were added to each well. The ligand used was biotinylated mouse Ephrin B2-Fc chimera (R&D Systems, final concentration: 2.5 nM). After incubation at room temperature for 1 hour and subsequent washing three times, horseradish peroxidase-labeled streptavidin (GE Healthcare) was added thereto and incubated at room temperature for 1 hour. After washing three times, a TMBZ (3,3′,5,5′-tetramethylbenzidine, Sigma-Aldrich) solution was added to each well and incubated at room temperature for 2 minutes. An equal amount of a reaction stopping solution (1N H₂SO₄, Wako Pure Chemical Industries) was added to each well. The absorbance at 450 nm was read using a microplate reader (Molecular Devices or PerkinElmer).
Antibody A and antibody A-F(ab′)₂ had 1000 or more times the activity of the KYL peptide, and antibody A-Fab also had 10 or more times the activity of KYL peptide.

[8] = target: T2, human EphA4 extracellular …; experiment: competition ELISA, competitor human Ephrin B3-Fc
Protocol: as §2

[9] = target: T2, human EphA4 extracellular …; experiment: competition ELISA, competitor human Ephrin A5-Fc
Protocol: as §2

[10] = target: T1, mouse EphA4 extracellular …; experiment: SPR (Biacore T200), mouse EphA4 extracellular region-SEAP-His captured on an anti-His antibody CM5 chip, Fab as analyte at 6.2-500 nM, 1:1 fit
Protocol: (§3) Next, the binding affinity of antibody A-Fab and antibody A-F(ab′)₂ for mouse and human EphA4 was determined by surface plasmon resonance (SPR) using Biacore T200 (GE Healthcare). Antibody A obtained in Example 1 was used as a control for the comparison of each fragment. First, an anti-His tag antibody was immobilized on sensor chip CM5. The immobilization of the anti-His tag antibody on sensor chip CM5 was performed by the amine coupling method using N-hydroxysuccinimide (NHS) and N-ethyl-N′-(3-dimethylaminopropyl)carbodiimide hydrochloride (EDC). Ethanolamine was used in blocking (the sensor chip and the reagents for immobilization were all manufactured by GE Healthcare). The antibody was diluted with a buffer solution for immobilization (10 mM sodium acetate, pH 4.5) into 3 μg/mL and immobilized on the sensor chip according to the protocol attached to Biacore T200.
(§4) Mouse or human EphA4 extracellular region-SEAP-His protein was diluted with a running buffer solution HBS-EP (GE Healthcare, BR-1001-88), injected onto a flow cell for 120 seconds, and captured (amount of the protein captured: approximately 10 to 20 RU). Subsequently, antibody A (50, 16.7, 5.6, 1.9, 0.6, and 0 nM), antibody A-Fab (500, 166.7, 55.6, 18.5, 6.2, and 0 nM), or antibody A-F(ab′)₂ (50, 16.7, 5.6, 1.9, 0.6, and 0 nM) serially diluted using HBS-EP was added to the sensor chip for 120 seconds. […]

[11] = target: T2, human EphA4 extracellular …; experiment: SPR (Biacore T200), human EphA4 extracellular region-SEAP-His captured on an anti-His antibody CM5 chip, Fab as analyte at 6.2-500 nM, 1:1 fit
Protocol: as §3, §4

[12] = target: T2, human EphA4 extracellular …; experiment: SPR (Biacore T200), EphA4-SEAP-His captured by anti-His antibody; Fab (monovalent), not F(ab')2
Protocol: as §3, §4

[13] = target: T1, mouse EphA4 extracellular …; experiment: as above
Protocol: as §3, §4

[14] = target: T2, human EphA4 extracellular …; experiment: SPR (Biacore T200), EphA4-SEAP-His captured by anti-His antibody; F(ab')2 (bivalent), not Fab
Protocol: as §3, §4

[15] = target: T1, mouse EphA4 extracellular …; experiment: as above
Protocol: as §3, §4

[16] = target: T2, human EphA4 extracellular …; experiment: SPR (Biacore T200), human EphA4 extracellular region-SEAP-His captured on an anti-His antibody CM5 chip, F(ab')2 as analyte at 0.6-50 nM, 1:1 fit
Protocol: as §3, §4

[17] = target: T1, mouse EphA4 extracellular …; experiment: SPR (Biacore T200), mouse EphA4 extracellular region-SEAP-His captured on an anti-His antibody CM5 chip, F(ab')2 as analyte at 0.6-50 nM, 1:1 fit
Protocol: as §3, §4

T1 sequence (chain, as listed by the source limits assumed): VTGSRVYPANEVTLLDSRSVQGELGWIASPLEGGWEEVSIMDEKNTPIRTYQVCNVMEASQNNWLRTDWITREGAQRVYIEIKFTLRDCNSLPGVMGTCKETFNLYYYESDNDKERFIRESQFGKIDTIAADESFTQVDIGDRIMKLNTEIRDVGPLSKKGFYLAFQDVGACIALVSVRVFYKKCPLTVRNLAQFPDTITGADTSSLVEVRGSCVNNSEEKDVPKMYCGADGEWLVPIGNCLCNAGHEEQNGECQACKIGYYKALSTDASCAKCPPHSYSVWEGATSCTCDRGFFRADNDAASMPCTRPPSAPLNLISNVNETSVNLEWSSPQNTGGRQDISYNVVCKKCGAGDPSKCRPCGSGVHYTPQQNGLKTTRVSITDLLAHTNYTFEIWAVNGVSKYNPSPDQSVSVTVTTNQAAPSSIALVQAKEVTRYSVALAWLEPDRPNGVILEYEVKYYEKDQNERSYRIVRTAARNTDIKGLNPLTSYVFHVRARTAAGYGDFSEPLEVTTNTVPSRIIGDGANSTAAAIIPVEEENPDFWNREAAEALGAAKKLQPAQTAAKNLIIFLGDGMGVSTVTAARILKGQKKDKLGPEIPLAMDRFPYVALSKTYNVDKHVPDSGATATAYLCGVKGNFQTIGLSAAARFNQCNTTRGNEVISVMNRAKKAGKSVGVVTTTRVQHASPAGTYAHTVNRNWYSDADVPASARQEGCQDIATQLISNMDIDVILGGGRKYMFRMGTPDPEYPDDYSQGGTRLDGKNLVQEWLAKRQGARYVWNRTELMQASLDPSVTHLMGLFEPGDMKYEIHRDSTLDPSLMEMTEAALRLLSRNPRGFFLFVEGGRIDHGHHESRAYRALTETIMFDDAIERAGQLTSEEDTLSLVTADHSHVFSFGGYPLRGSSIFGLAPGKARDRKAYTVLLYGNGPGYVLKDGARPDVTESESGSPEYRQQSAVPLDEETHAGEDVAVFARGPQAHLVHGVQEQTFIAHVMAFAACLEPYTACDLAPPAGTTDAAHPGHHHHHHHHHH

B1: KYL peptide (peptide)
peptide: KYLPYWPVLSSL
notes: synthetic peptide
In the case of B1, the IC50 [1] is reported as 1.29 µM, the “IC50 of suppression of EphA4 autophosphorylation induced by mouse EphrinA1 in the hippocampal neurons” value [2] is reported as 9.91 µM and the IC50 [3] is reported as roughly 1.3 µM. The IC50 [4] was 1.31 µM, the IC50 [5] was 6.12 µM and the IC50 [6] was 1.57 µM. It also gave an IC50 [7] of 5.29 µM, an IC50 [8] of roughly 1.6 µM and an IC50 [9] of roughly 6.1 µM.

B2: antibody A-Fab (Fab, V domains shown, not shown: a dimerising Fc or GST)
VH: QIQLVQSGPELKKPGETVKISCKASGYTFTDYSMHWVKQAPGKGLKWMGWINTETGEPTYADDFKGRFAFSLETSASTAYLQINNLKNEDTATYFCARIPLYYYGSRYWYFDVWGAGTTVTVSS
VL: DIQMTQSPASLSVSVGETVTITCRASENIYRNLAWYQQKQGKSPQLLVYAATNLADGVPSRFSGSGSGTQYSLKINSLQSEDFGSYYCQHFWGTPWTFGGGTKLEIKR
notes: made by papain digestion of antibody A; also called Fab fragment of antibody A
Binder B2 has a koff [10] of 0.042 s⁻¹, a kon [10] of 931000 M⁻¹ s⁻¹ and an IC50 [7] of 0.439 µM. The “fold activity against KYL peptide” value [7] was no less than 10 fold, the koff [11] was 0.0373 s⁻¹ and the kon [11] was 921000 M⁻¹ s⁻¹. For the same binder, the Kd [12] was 0.0404 µM and the Kd [13] was 0.0451 µM.

B3: antibody A-F(ab')2 (other, not shown: a dimerising Fc or GST)
heavy: B2 VH
light: DIQMTQSPASLSVSVGETVTITCRASENIYRNLAWYQQKQGKSPQLLVYAATNLADGVPSRFSGSGSGTQYSLKINSLQSEDFGSYYCQHFWGTPWTFGGGTKLEIKRADAAPTVSIFPPSSEQLTSGGASVVCFLNNFYPKDINVKWKIDGSERQNGVLNSWTDQDSKDSTYSMSSTLTLTKDEYERHNSYTCEATHKTSTSPIVKSFNRNEC
notes: made by pepsin digestion of antibody A; also called F(ab')2 fragment of antibody A
B3 showed a Kd [14] of 53 pM, a Kd [15] of 22.9 pM and a koff [16] of 0.0333 s⁻¹. The kon [16] was 629000 M⁻¹ s⁻¹, the koff [17] was 0.000205 s⁻¹ and the kon [17] was 8.98e+06 M⁻¹ s⁻¹. The IC50 [7] was 0.0029 µM and the “fold activity against KYL peptide” value [7] was no less than 1000 fold.
